Laboratory results reported in US20120213771A1 (published 2012).
Positions count from the first letter of the chain named.

T1: recombinant human CD27/TNFRSF7/Fc chimera (R&D Systems Catalog No. 382-CD) (UniProt P26842 20-191)
T1 chain: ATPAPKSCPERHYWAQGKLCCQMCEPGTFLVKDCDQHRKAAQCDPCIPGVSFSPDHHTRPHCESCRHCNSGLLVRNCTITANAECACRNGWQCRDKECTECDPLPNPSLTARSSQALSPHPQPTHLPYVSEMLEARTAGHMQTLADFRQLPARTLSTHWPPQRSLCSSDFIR

B1: 1G5-1B9 (antibody, V domains shown)
VH: QVQLVESGGGVVQPGRSLRLSCAASGFSFSSYGMHWVRQAPGKGLEWVALLWYDGSHKDFADSVKGRFTISRDNSKNTLDLQMNSLRAEDTAVYYCAREGLAVPGHWYFDLWGRGTLVTVSS
VL: AIQLTQSPSSLSASVGDRVTITCRASQGISSALAWYQQKPGKAPKLLIYDASSLESGVPSRFSGSGSGTDFTLTISSLQPEDFATYYCQQFNTYPRTFGQGTKVEIK
B2: 3H8-1B11 (antibody, V domains shown)
VH: EVQLVESGGGLVQPGGSLRLSCAASGFTFSSYWMAWVRQAPGKGLEWLGNIKQDGSEKYYVDSVKGRFTISRDNAKNSLYLQMNSLRAEDTAVYYCVRELGMDWYFDLWGRGTLVTVSS
VL: EIVLTQSPATLSLSPGERATLSCRASQSVDSYLAWYQQKPGQAPRLLIYDASNRATGIPARFSGSGSGTDFTLTISNLEPEDFAVYYCQQRSNWPPTFGQGTKVEIK
B3: 2C2-1A10 (antibody, V domains shown)
VH: QVQLVESGGGVVQPGRSLRLSCAASGFTFSSYDIHWVRQAPGKGLEWVAVIWNDGSNKYYADSVKGRFTISRDNSTNSLFLQMNSLRAEDTAVYYCVGGTADLEHWDQGTLVTVSS
VL: DIQMTQSPSSLSASVGDRVTITCRASQGISSWLAWYQQKPEKAPKSLIYAASSLQSGVPSRFSGSGSGTDFTLTISSLQPEDFATYYCQQYNSYPLTFGGGTKVEIK
B4: 2G9-1D11 (antibody, V domains shown)
VH: B3 VH with F29L, Y32H, G98R
VL: B3 VL
B5: 1F5-1H5 (antibody, V domains shown)
VH: QVQLVESGGGVVQPGRSLRLSCAASGFTFSSYDMHWVRQAPGKGLEWVAVIWYDGSNKYYADSVKGRFTISRDNSKNTLYLQMNSLRAEDTAVYYCARGSGNWGFFDYWGQGTLVTVSS
VL: B3 VL with S31R, S93T, L96R, G100Q
B6: 1H8-B4 (antibody, V domains shown)
VH: QVQLVESGGGVVQPGRSLRLSCAASGFTFNIYDMHWVRQAPGKGLEWVAVIWYDGSNQYYADSVKGRFTISRDNSKNTLYLQMNILRAEDTAVYYCARGTHWGYFDYWGQGTLVTVSS
VL: B3 VL with S53N, L96R, G100Q
B7: 3A10-G10 (antibody, V domains shown)
VH: QVQLVESGGGVVQPGRSLRLSCAASGFTFSHYGMHWVRQAPGKGPEWVAIIWYDGSNKYYADSVKGRFTISRDNSKNTLDLQMNSLRAEDTAVYYCARDGWTTMVRGLNVFDIWGQGTMVTVSS
VL: B3 VL with G28D, L96P, G100Q, K103R, V104L
B8: 3H12-1E12 (antibody, V domains shown)
VH: B5 VH with A24T, R87G, A88D
VL: B3 VL with S31R, S93T, L96R, G100Q

Molecular target: T1, recombinant human CD27/TNFRSF7/Fc …
Experiment: Biacore SPR

| Ka [M⁻¹] | Binder |
| --- | --- |
| 2.55e+09 | B1 |
| 1.81e+10 | B2 |
| 1.2e+10 | B3 |
| 6.6e+11 | B4 |
| 5.37e+09 | B5 |
| 6.39e+09 | B6 |
| 4.97e+09 | B7 |
| 2.8e+09 | B8 |

Molecular target: T1, recombinant human CD27/TNFRSF7/Fc …
Experiment: Biacore SPR
Remark: another data set of the same source

| Kd [pM] | Binder |
| --- | --- |
| 402 | B1 |
| 55.6 | B2 |
| 84.1 | B3 |
| 1.53 | B4 |
| 186 | B5 |
| 158 | B6 |
| 202 | B7 |
| 358 | B8 |
